Marks after values point to notes of the source that are not given here.
Target: T1, mutant LEPR-A409E (Homo sapiens, UniProt P48357, A409E)
T1 construct: expressed in transfected cells; host or cells: HEK293
T1 sequence (P48357 22-1165 A409E): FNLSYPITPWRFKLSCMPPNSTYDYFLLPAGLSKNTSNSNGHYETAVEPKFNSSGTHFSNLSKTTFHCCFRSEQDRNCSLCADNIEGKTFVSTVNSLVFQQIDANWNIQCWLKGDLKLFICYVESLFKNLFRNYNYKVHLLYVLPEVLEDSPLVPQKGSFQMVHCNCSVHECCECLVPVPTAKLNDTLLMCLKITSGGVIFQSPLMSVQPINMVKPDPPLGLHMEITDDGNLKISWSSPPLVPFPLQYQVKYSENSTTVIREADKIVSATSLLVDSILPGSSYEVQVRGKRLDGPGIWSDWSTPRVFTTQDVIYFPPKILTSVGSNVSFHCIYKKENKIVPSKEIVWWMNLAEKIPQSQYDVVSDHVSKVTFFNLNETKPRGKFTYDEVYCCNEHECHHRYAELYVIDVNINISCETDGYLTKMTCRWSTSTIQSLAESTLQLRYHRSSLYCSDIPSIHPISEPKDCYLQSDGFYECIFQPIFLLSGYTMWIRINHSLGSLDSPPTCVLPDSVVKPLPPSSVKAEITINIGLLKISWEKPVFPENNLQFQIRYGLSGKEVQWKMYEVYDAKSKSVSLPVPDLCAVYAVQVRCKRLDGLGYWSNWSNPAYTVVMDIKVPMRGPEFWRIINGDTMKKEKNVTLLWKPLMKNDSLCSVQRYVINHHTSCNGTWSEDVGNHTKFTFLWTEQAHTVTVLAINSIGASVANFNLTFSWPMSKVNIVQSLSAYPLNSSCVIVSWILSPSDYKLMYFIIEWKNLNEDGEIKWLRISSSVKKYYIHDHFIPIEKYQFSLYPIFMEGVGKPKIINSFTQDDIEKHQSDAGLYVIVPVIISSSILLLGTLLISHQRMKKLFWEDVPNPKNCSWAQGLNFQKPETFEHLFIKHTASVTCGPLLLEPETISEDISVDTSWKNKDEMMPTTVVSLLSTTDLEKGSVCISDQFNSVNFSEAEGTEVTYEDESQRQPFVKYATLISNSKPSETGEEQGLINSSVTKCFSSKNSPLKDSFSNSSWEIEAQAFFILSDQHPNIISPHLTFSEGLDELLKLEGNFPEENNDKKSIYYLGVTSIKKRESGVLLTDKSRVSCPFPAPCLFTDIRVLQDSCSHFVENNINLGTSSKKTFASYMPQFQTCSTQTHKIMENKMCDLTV
Assay: STAT3-Luciferase reporter assay in HEK293 cells that express hLEPR-A409E
Type: cell-based
Description: Missense mutation A409E in LEPR gene was associated with autosomal recessive early onset of obesity in human (Farooqi et al., 2007, N Engl J Med 356 (3): 237-247). […] To test whether the anti-LEPR antibodies can activate these mutant human LEPR receptors, the STAT3-Luciferase reporter assay was established using HEK293 cells that express hLEPR-A409E. These cells were cultured in growth medium DMEM/F12 (Gibco, #12430-054), 10% fetal bovine serum (FBS, Gibco, #10082-147), antibiotics (Gibco, #15240-062), Sodium Pyruvate (Gibco, #11360-070) and GlutaMax supplement (Gibco, #35050-061) in the presence of drug selection 250 μg/mL of Hygromycin (Invitrogen, #10687010) and 800 μg/mL of Geneticin (Corning, #30-234-C1).
Before plating the cells for luciferase assays, the poly-D-Lysine coated 96-well plates (Corning Inc, Bio Coat, #354651, Poly-D-Lysing coated) were rinsed once with phosphate buffered solution (PBS) and once by plating medium. Then, 20,000 to 24,000 STAT3-Luciferase reporter cells were seeded onto the poly-D-lysine 96-well plates in 100 μL/well plating medium consist of DMEM/F12 (3:1, Gibco, #93-0152DK), 10% fetal bovine serum (FBS, Gibco, #10082-147), 1x GlutaMax supplement (Gibco, #35050061) 20 mM HEPES (Gibco, #15630-080) and antibiotics (Gibco, 15240-062). After overnight culture at 37°° C. with 5% CO2, the culture medium was changed to 75 μL assay medium containing OPTI-MEM (Gibco, #31985-070) with 1% BSA (BSA Fraction V (7.5%), Gibco, #15260-037), 0.1% dialyzed fetal bovine serum (FBS, Gibco, #26400-044) for 1 hour at 37° C. with 5% CO2. Test articles were diluted into 25 μL assay medium and were added to each well. Cells were further incubated for 20 hours at 37° C. with 5% CO2. Cell lysing and One-Glo luciferase substrate solution (Promega, #E6120) were then added to each well, and relative luciferase units (RLUs) were measured on a ClarioStar plate reader. The concentration response curves were then plotted as raw RLU readings to the function of log drug concentrations. EC50 was calculated using GraphPad Prism software.

Bottom (RLU) (LEPR-A409E STAT3-luciferase): 451.8 RLU
Hill Slope (LEPR-A409E STAT3-luciferase): 0.2011
Top (RLU) (LEPR-A409E, top of curve projected by GraphPad Prism software): 259289* RLU
activation of LEPR-A409E (STAT3-luciferase): did not activate
Substance: human leptin: recombinant human leptin protein (SEQ ID NO:27), positive control

Source: US20250289897A1, “LEPTIN RECEPTOR AGONISTIC ANTIBODY AS MONO OR COMBO THERAPIES TO TREAT OBESITY” (ELI LILLY AND COMPANY, priority 2024, published 2025)
